Source: the nanobody polyreactivity screen of Harvey et al. (2022)

Assay: yeast display, Sf9 membrane polyspecificity reagent, FACS + sequencing; frameworks hold sequencing errors
In short: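 A synthetic nanobody library was expressed on Saccharomyces cerevisiae BJ5465 by galactose induction for 36–48 hours. The library was stained for 1 hour at 4 °C with 10% biotinylated, detergent-solubilized Sf9 membrane reagent and enriched with streptavidin microbeads before FACS. Low and high (top ~1%) gates were set on anti-HA fluorescence for expression and streptavidin fluorescence for reagent binding, and each polyreactivity label reflects the gate of origin.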

Sequence	polyreactivity (PSR sort gate)
QVQQQESGGGLVQAGGSLRQSYAASGYIFPSLAMGWYRQAPGKEREFVAAIGRGSTNNYADSVKGRFTISRDNAKNTAYQQMNSLKPEDTAVYYCAAAASPLTRHLYWGQGTQVTVSS	low polyreactivity
QVQLVESGGGLVQAGGSIRLSCAASGFTFYYNTMGCYRQAPGKERELVAAISYSAGSTFYADSVKGRFTISRDNAKNTVYLQMNSLKTEDTAVYYCAAGRPRRHKGYHFGYWGQGTQVTVSS	low polyreactivity
EVQLVESGGGLVQAGGSLRLSCAASGSTFNWNDMGWYRQAPGKEREFVASISTTGSTNYADSVKGRFTISRDNAKNTVYLQMNSLKPEDTAVYYCNAEYGWYYWYGYWFYEGDYWGQGTQVTVSS	high polyreactivity
QVQLVESGGGLVQAGGSLRLSCAASGSTFHYNAMGWYRQAPGKERELVAAIDNGGRTNYADSVKGRFTISRDNAKNTVYLQMNSLKPEDPAVYYCATRGYFWSFTTSYYHYYYWGQGTQVTVSS	high polyreactivity
QVQLVESGGGLVQAGGSIRLSCAASGITFYVYTLGWYRQAAGKERELVAAINGSGGSTNYADSVKGRFTITRDNEKNTVYLQMNSLKREDTAVYYCNAPVVYFWPLNFDYWGQGTQVTVSS	low polyreactivity
QVQLVESGGGLVQAGGSLRLSCAASGIFTRYVMGWYRQAPGKERELVAAITANGGRTYYADSVKGRFTISRDNAKNTVYLQMNSLKPEDTAVYYCNADWRWKWSSRGGYWGQGTQVTVSS	high polyreactivity
QVQLVESGGGLVQAGGSLRLSCSASGIIFDSYVMGWYRQAPGKERELVAAISFRGGSTYYADSVKGRFTISRDNAKNTVYLQMNSLKPEDTAVYYCAAEGRGYTEYYWGQGTQVTVSS	high polyreactivity
QVQLVESGGGLVQAGGSLRLSCAASGFIFGSYAMGWYRQAPGKERELVAAITRSGGNTYYADSVKVRFTISRDNAKNTVYLQMNSLKPEDTAVYYCAAYSGYWYDYWGQGTQVTVSS	high polyreactivity
QVQLVESGGGLVQAGGSLRLSCAASGRIFADNAMGWYRQAPGKERELVADITYSGGSTYYADSVKGRFTISRDNAKNTVYLQMNSLNPEDTAVYYCAKQGVDYWGQGTQVTVSS	low polyreactivity
QVQIVESGPGLVQAGASLSLSCAASGSIFRPYAMGWYIQAPGKDRELVAAITWSGGRTYYADSVKGRFTISRDNAKNTVYLKMNSLKREDTAVYYCAADDSEGFDYWGQGNQVTVSS	high polyreactivity
QVQLVESGGGLVQAGGSLRLSCAASGRTFRYYTMGWYRQAPGKERELVAAISWSSGSTYYADSVKGRFTISRDNAKNTVYLQMNSLKPEDTAVYYCAASRVRREYVGQDVGFVGYDSWGQGTQVTVSS	high polyreactivity
QVQLVESWGGLVQAGGSLRLSSAASGLTFWYYAMGCNRQAPGKESELVAAITSVGSSYYADSVKGRFTISRDNAKQTVYLQMNSLKPEDTAVYYCAAGVPPLYFRRGGDYWGQGTQVTVSS	high polyreactivity
QVQLVESGGGLVQAGGSLRLSCADSGRIFYRYAMGWYRQAPGKERELVAAITNSGGRTYYADSVKGRFTISRDNAKNTVYLQMNSVKPEDSAVYYCNAVKTSEYDYWGQGTQVTVSS	high polyreactivity
QVQLVESGGGLVQAGGSLRLSCAASGYTFDINAMGWYRQAPGKERELVADISANDGSTSYADSVKGRFTISRDNAKNTVYLQMNSLKPEDTAVYYCAADYIWNPTWSVGYGDPGYDYCGQGTQVTVSS	low polyreactivity
QVQLVESGGGLVQAGGSLRLSCAASGRTLLLNTMGWYRQAPGKERELVAAISWRDGSTYYADSVKGRFTFSRDKAKNTVYLLMNSLKPEDTAVYYCNARLSGRSQYDVRFDYWGQGTQVTVSS	low polyreactivity
QVQLVESGGGLVQAGGSLRLSCAASGSTFPGNTMGSYRQAPGKERELVAAITWNGGSTYYADSVKGRFTISRDNAKNNVYLQMNRLKPEDTAVYYCATRARVTYYYWGLGTQVTVSS	high polyreactivity
QVQLVESGGGLLQAGGSLRLSCAASGSTFGHYAMGWYRQAPGKERELVAAITWSGGSTYYADSVKGRFTISGDNAKNTVYLQMKSLKPEDTAVYDCAARFGGGAARHGYWGQGTQVTVSS	high polyreactivity
QVHLVESGGGLVQAGGSLRLSCAASGSIFNENAMGWYRQAPGKERELVATISRRGGSTYYADSVKGRFTISRDNAKNTVYLQMNSLKPEDTAVYYCARDIFWVVYWGQGTQVTVSS	high polyreactivity
QVQLVESGGGLVQAGGSLRLTCAASGFTFNRYTMGWYRQAPGKERELVAAITRSGGSTYYADSVKGRFTISRDNAKNTVDLQMNSLKPEDTAVYYCAAPSYLVAGYGYWGQGTQVTLSS	high polyreactivity
QVQLVESGGGLVQAGGSLRLSCAASGRIFSGYAMGWYRQAPGKERELVAVITSTGGSTYYADSVKGRFTISRDNAKNTVYLQMNSLKPEDTAVYYCATRGVRRYYKTMNYWGQGTQVTVSS	high polyreactivity
QVQLVESGRGLVQAGGSLRLTCAASGSTFTANDMGGSRPATGTERELFADISSGDGTNYADSVKGRFTISRDNAKNTVYLQMISLKPEDTAVYYCAKDVYNFRTTHSYFTGYDSWGHGTQVTVSS	low polyreactivity

Sequence	polyreactivity (PSR sort gate)
QVQLVESGGGLVQAGGSLRLICAASGFTIGANTMGWYREAPGKERELVAAITSGGRTYYADSVKGRFTISRDNAKNTVYLQMNSLKPEDTAVYYCAAGRPRTIFQEYGSWGQGTQVTVSS	high polyreactivity
QVQLVESGGGLVQAGGSLRLSCAASGSISGYYAMGGYRQAPGKERELVASIRYTGARTYYADSVKGRFTISRDNAKNTVYLQMNSLKPEDTAVYYCAADVKRDRVWGGDYWGQGTQVTVSS	low polyreactivity
QVQLVESGGGLVHAGGSIRLSCAASGRTFAYNDMGWYTQAPGTERELVAAISWSDGTTYYADSVKGRFTISRDNAKNPVYLQMHCLKPEDTAVYYCAAESYPSEVASYVSEYDYWGQGTQVTVSS	low polyreactivity
QVQLVESGGGLVQAGGSLRLSCAASGIIFPYYTMGGYRQAPGKERELVARITNGGRTYSADSVKGRFTISRDKAKNTVYLQMNSLKPEDTAVYYCAASWGRRKPRMDYWGQGTQVTVSS	high polyreactivity
QVQLVESGGGLVQAGGSLRLSCAASGSTFYNYAMGWYRQAPGKERELVASITWNGGSTYYADSVKGRFTISRDNAKNTVYLQMNSLKPEDTAVYYCAADWTWTYPYDYWGQGTQVTVSS	low polyreactivity
QDQLLESVGGLVQAGGSLRLSCAATGSTFHRSVMGSYRQAPGKEREMVAVINSTGGSTYYADSVKGRFTISLDNAKNTVYLQMNSVKPEDSAVYYFAADLYSIEYETAYRGYEYWGQGTQVTVSS	low polyreactivity
QVQLVESGGGLVQAGGSLRLSCAASGRIFGYNAMGWYRQATGNERELVAAITNGGSTNYADSVKGRFTISRDNAKNTVYLQMNSLKPEDTAVYYCAVKWYPPGHDYWGQGTQVTVSS	low polyreactivity
QVQLVESGGGLVQAGGSLRLSCAASGRIFSSYAMGWYRQAPGKERELVAANSRSGARTYYADSVKGRFTISRDNAKNTVYLQMNSLKPEDTAVYYCAAVTVAGYDYWGQGTQVTVSS	high polyreactivity
QVQLVESGGGLVQAGGSLRLSCAASGSILFKNAMGWYRQAPGKERELVAAISTSGGRTYYADSVKGRFTISRDNAKNTVYLEMNSLKPEDTAVYYCAAVYPRQVSQVWRDDYWGQGTQVTVSS	high polyreactivity
QVQLVESGGGLVQAGGSLRLSCAASGGIIGHYDMGWYRQAPGKERELVAAIIGGGSTNYADSVKGRFTISRDNAKNTVYLQMNSLKPEDTAVYYCNVAHGTQGWWGRNDYWGQGTQVTVSS	low polyreactivity
QVQLLESGGGLVQAGVSLRLRCAPSGGTHKYYTMALYRQAPGKERELDATIRWYGDSTSYADSVKGRFTISRDNAKNTVYLQMNSQNPEDTAVYSCNADYAWYQRKSTVEYDYWVQGTQVTVSS	low polyreactivity
QVQLVDSGGGLVQAGGSLRLSCAASGRTFYWYTMGWYRQAPGKERELVAAISTRGVRTYYADSVKGRFTISRDNAKNTVYLQMNSLKPADTAVYYCNDEYNPTYYTSHDDSDYWGQGTLVTVSS	low polyreactivity
QVQLVESGGRLVQAGGSLRLSCAASGFTFPNYAMGWYRQAPGKERELVAAISWSGTSTYYADSVKGRFTISRDNAKNTVYLQMNSLKPEDTAVYDCAAKYQRGGYYESYWLRTGYYWGQGTQVTVSS	high polyreactivity
QVQHVESGGGLVQAGGSLRLSCAASGSIFSHYAMGWYRQEPGKERELVATITWRGGSNTNYADSVKGRFTISRDNAKNTVYLQMNSLKPEDTAVYYCNAAFPYHYRFDYWGQGTQVTVSS	low polyreactivity
QVQLVESGGGLVQAGGSLRLSCAASGLIFRHYAMGWYRQAPGKERELVAAIDYSGGSTYYADSVKGRFTISRDNAKNSVYLQMNSLKPEDTAVYYCAADYFWLYYSEYGYWGQGTQVNVSS	low polyreactivity
QVQLVESGGGLVQAGGSLRLSCAASGRTFGYNAMGWYRQAPGKETELVAAIRYSGGSTYYADSVKGRFTISRDNSKNTVYLQMNSLKPEDTAVYYCAKETRRYYRGYYYWGQGTQVTVSS	high polyreactivity
QVQLVESGGGLVQAGGSLRLSCAASGGTFNTNAMGWYRQAPGKERELVATIRGGVITTYADSVKGRFTISRDNAKNTVYLQMNSLKPEDTAVYYCAVDDLRGYDYWGQGTQVTVSS	low polyreactivity
QVQLVESGGGLVQAGGSLRLSCAASGRTLQHYAMGWYRQAPGKERELVAGITKNGGSTYYADSVKGRFTISRDNAKNTVYLQMNSLKPEDTAVYYCAKRWGGYSIPLDYDYWGQGTQVTVSS	low polyreactivity
QVQLVESGGGLVQAGGSLRLSCAASGSTFRGYAMGSYRQAPGKETELVATITSGGSTNYADSVKGRFTISRDNAKNTVSLQMNSLKPEDTAVYYCNARWVPSYWKYFHANYGYWGQGTQVTVSS	high polyreactivity
QVQLVESGGGLVQAGGSLRLSCAASGRIFAENAMGWYRQAPGKERELVAAISRTGSRTYYADSVKGRFTISRDNAKNTVYLQMNSLKPEDSAVYYCNKVSAQDEFRSRGYWGQGTQVTVSS	high polyreactivity
